Test results published in US20170209529A1 (BRIGHAM AND WOMEN S HOSPITAL, published 2017).
Values joined by “and” are separate entries in the source; they are usually repeats but may differ in a detail not shown here. Equal entries are not always repeated. Bridge positions count the residues as written; N and C are the ends.

Each binder was assayed against T1, soluble human FcRn (shFcRn) (human, UniProt P55899 24-297; P61769 21-119) (assay: SPR (Biacore), immobilized shFcRn, pH 7.4).
T1 construct: For crystallography it was expressed in CHOK1SV cells and deglycosylated with PNGaseF; biotinylated for phage selection; also called hFcRn/β2m; FcRn-biotin
A Kd of 29.1 µM was found for Ac-AMTCKWDDGFSCEYV-NH2 (disulfide 4-12 (inferred)) [SYN1144] in this work.
A Kd of 17.3 µM was found for Ac-YMTCKWDDGFSCEAV-NH2 (disulfide 4-12 (inferred)) [SYN1155] in this work.
A Kd of 22 µM was found for Ac-YMTCKWDDGFSCEYA-NH2 (disulfide 4-12 (inferred)) [SYN1156] in this work.
A Kd of 20.7 µM was found for Ac-YMTCKWDDAFSCEYV-NH2 (disulfide 4-12 (inferred)) [SYN1151] in this work.
A Kd of 12 µM was found for Ac-YMTCKWADGFSCEYV-NH2 (disulfide 4-12 (inferred)) [SYN1149] in this work.
A Kd of 9.2 µM was found for Ac-YMTCKWDDGFSCAYV-NH2 (disulfide 4-12 (inferred)) [SYN1154] in this work.
A Kd of 17.3 µM was found for Ac-VMKCWWDEEMLCRAF-NH2 (disulfide 4-12 (inferred)) [SYN1532] in this work.
A Kd of 59.1 µM was found for Ac-VMHCWWDEEMLCRAF-NH2 (disulfide 4-12 (inferred)) [SYN1533] in this work.
A Kd of 18.9 µM was found for Ac-VMKCWWDEEMLCEAF-NH2 (disulfide 4-12 (inferred)) [SYN1538] in this work.
A Kd of 91.3 µM was found for Ac-VMKCFWDEEMLCRAF-NH2 (disulfide 4-12 (inferred)) [SYN1535] in this work.
A Kd of 45.7 µM was found for Ac-VMKCWWDEEMLCRAV-NH2 (disulfide 4-12 (inferred); not fully specified) [SYN1540A] in this work.
A Kd of 8.6 µM was found for Ac-VMKCWWDEEMLCRYF-NH2 (disulfide 4-12 (inferred)) [SYN1539] in this work.
A Kd of 20.2 µM was found for Ac-VMRCWWDEEMLCRAF-NH2 (disulfide 4-12 (inferred)) [SYN1534] in this work.
A Kd of 44.4 µM was found for Ac-AGVMKCWWDEEMLCRAFGTGGGK-NH2 (disulfide 6-14 (inferred)) [SYN531] in this work.
A Kd of 62 µM was found for Ac-VMHCFWDEEFKCDQG-NH2 (disulfide 4-12 (inferred)) [SYN1197] in this work.
A Kd of 24 µM was found for Ac-VMHCFWDEEFKCEQG-NH2 (disulfide 4-12 (inferred)) [SYN1258] in this work.
A Kd of 186 µM was found for Ac-VMHCFWDEAFKCDQG-NH2 (disulfide 4-12 (inferred)) [SYN1216] in this work.
A Kd of 40 µM was found for Ac-VMHCFWDEGFKCDQG-NH2 (disulfide 4-12 (inferred)) [SYN1257] in this work.
A Kd of 12 µM was found for Ac-VMHCFWDEEFKCDYG-NH2 (disulfide 4-12 (inferred)) [SYN1259] in this work.
A Kd of 22 µM was found for Ac-VMHCFWDEEFKCDQV-NH2 (disulfide 4-12 (inferred)) [SYN1260] in this work.
A Kd of 50 µM was found for Ac-YMHCFWDEEFKCDQG-NH2 (disulfide 4-12 (inferred)) [SYN1256] in this work.
A Kd of 112 µM was found for Ac-VMHCFWDEAFRCDQG-NH2 (disulfide 4-12 (inferred)) [SYN1382] in this work.
A Kd of 4.9 µM was found for Ac-VMHCFWDEEFRCDYG-NH2 (disulfide 4-12 (inferred)) [SYN1381] in this work.

The binders below were run against T1, soluble human FcRn (shFcRn) (assay: SPR (Biacore), Kd pH 7.4 divided by Kd pH 6.0).
For Ac-AMTCKWDDGFSCEYV-NH2 (disulfide 4-12 (inferred)) [SYN1144], the “Kd Ratio 7.4/6.0” value was 23.3.
Ac-YMTCKWDDGFSCEAV-NH2 (disulfide 4-12 (inferred)) [SYN1155] was tested, and the “Kd Ratio 7.4/6.0” value was 9.8.
In the case of Ac-YMTCKWDDGFSCEYA-NH2 (disulfide 4-12 (inferred)) [SYN1156], the “Kd Ratio 7.4/6.0” value is reported as 38.
In the case of Ac-YMTCKWDDAFSCEYV-NH2 (disulfide 4-12 (inferred)) [SYN1151], the “Kd Ratio 7.4/6.0” value is reported as 25.
With Ac-YMTCKWADGFSCEYV-NH2 (disulfide 4-12 (inferred)) [SYN1149] the “Kd Ratio 7.4/6.0” value was 7.8.
Ac-YMTCKWDDGFSCAYV-NH2 (disulfide 4-12 (inferred)) [SYN1154] was tested, and the “Kd Ratio 7.4/6.0” value was 20.
With Ac-VMKCWWDEEMLCRAF-NH2 (disulfide 4-12 (inferred)) [SYN1532] the “Kd Ratio 7.4/6.0” value was 112.
Ac-VMHCWWDEEMLCRAF-NH2 (disulfide 4-12 (inferred)) [SYN1533] was tested, and the “Kd Ratio 7.4/6.0” value was 106.
In the case of Ac-VMKCWWDEEMLCEAF-NH2 (disulfide 4-12 (inferred)) [SYN1538], the “Kd Ratio 7.4/6.0” value is reported as 71.
For Ac-VMKCFWDEEMLCRAF-NH2 (disulfide 4-12 (inferred)) [SYN1535], the “Kd Ratio 7.4/6.0” value was 35.
With Ac-VMKCWWDEEMLCRAV-NH2 (disulfide 4-12 (inferred); not fully specified) [SYN1540A] the “Kd Ratio 7.4/6.0” value was 80.
For Ac-VMKCWWDEEMLCRYF-NH2 (disulfide 4-12 (inferred)) [SYN1539], the “Kd Ratio 7.4/6.0” value was 83.
With Ac-VMRCWWDEEMLCRAF-NH2 (disulfide 4-12 (inferred)) [SYN1534] the “Kd Ratio 7.4/6.0” value was 125.
With Ac-AGVMKCWWDEEMLCRAFGTGGGK-NH2 (disulfide 6-14 (inferred)) [SYN531] the “Kd Ratio 7.4/6.0” value was 99.
For Ac-VMHCFWDEEFKCDQG-NH2 (disulfide 4-12 (inferred)) [SYN1197], the “Kd Ratio 7.4/6.0” value was 84.
For Ac-VMHCFWDEEFKCEQG-NH2 (disulfide 4-12 (inferred)) [SYN1258], the “Kd Ratio 7.4/6.0” value was 65.
With Ac-VMHCFWDEAFKCDQG-NH2 (disulfide 4-12 (inferred)) [SYN1216] the “Kd Ratio 7.4/6.0” value was 52.
With Ac-VMHCFWDEEFKCDYG-NH2 (disulfide 4-12 (inferred)) [SYN1259] the “Kd Ratio 7.4/6.0” value was 132.
In the case of Ac-VMHCFWDEEFKCDQV-NH2 (disulfide 4-12 (inferred)) [SYN1260], the “Kd Ratio 7.4/6.0” value is reported as 73.
For Ac-YMHCFWDEEFKCDQG-NH2 (disulfide 4-12 (inferred)) [SYN1256], the “Kd Ratio 7.4/6.0” value was 69.
Ac-VMHCFWDEAFRCDQG-NH2 (disulfide 4-12 (inferred)) [SYN1382] was tested, and the “Kd Ratio 7.4/6.0” value was 25.
For Ac-VMHCFWDEEFRCDYG-NH2 (disulfide 4-12 (inferred)) [SYN1381], the “Kd Ratio 7.4/6.0” value was 82.

Each binder was assayed against T1, soluble human FcRn (shFcRn) (assay: SPR (Biacore), immobilized shFcRn, pH 6, steady-state fit).
A Kd of 0.9 µM was found for Ac-RYFCTKWKHGWCEEVGTGGGK-NH2 (disulfide 4-12 (inferred)) [SYN1706] in this work.
A Kd of 0.59 µM was found for Ac-AGRYFCTKWKHGWCEEVGT-NH2 (disulfide 6-14 (inferred)) [SYN1710] in this work.
A Kd of 4.62 µM was found for Ac-AGRYFCTKWKHGWCEEV-NH2 (disulfide 6-14 (inferred)) [SYN1712] in this work.
A Kd of 0.57 µM was found for Ac-AGRYFCTKWKHGWCEEVGTGG-NH2 (disulfide 6-14 (inferred)) [SYN1708] in this work.
A Kd of 1.56 µM was found for Ac-AGRYFCTKWKHGWCEEVG-NH2 (disulfide 6-14 (inferred)) [SYN1711] in this work.
A Kd of 0.49 µM was found for Ac-AGRYFCTKWKHGWCEEVGTGGG-NH2 (disulfide 6-14 (inferred)) [SYN1707] in this work.
A Kd of 0.84 µM was found for Ac-GRYFCTKWKHGWCEEVGTGGGK-NH2 (disulfide 5-13 (inferred)) [SYN1705] in this work.
A Kd of 0.68 µM was found for Ac-AGRYFCTKWKHGWCEEVGTG-NH2 (disulfide 6-14 (inferred)) [SYN1709] in this work.
A Kd of 13.8 µM was found for Ac-AYFCTKWKHGWCEEV-NH2 (disulfide 4-12 (inferred)) [SYN1542] in this work.
A Kd of 39.4 µM was found for Ac-RYFCTKWKHAWCEEV-NH2 (disulfide 4-12 (inferred)) [SYN1550] in this work.
A Kd of 9.3 µM was found for Ac-RYFCAKWKHGWCEEV-NH2 (disulfide 4-12 (inferred)) [SYN1545] in this work.
A Kd of 27.4 µM was found for Ac-RYFCTKWKAGWCEEV-NH2 (disulfide 4-12 (inferred)) [SYN1549] in this work.
A Kd of 7.7 µM was found for Ac-RYACTKWKHGWCEEV-NH2 (disulfide 4-12 (inferred)) [SYN1544] in this work.
A Kd of 67.5 µM was found for Ac-RAFCTKWKHGWCEEV-NH2 (disulfide 4-12 (inferred)) [SYN1543] in this work.
A Kd of 9.5 µM was found for Ac-RYFCTKWKHGWCEAV-NH2 (disulfide 4-12 (inferred)) [SYN1553] in this work.
A Kd of 14.2 µM was found for Ac-RYFCTAWKHGWCEEV-NH2 (disulfide 4-12 (inferred)) [SYN1546] in this work.
A Kd of 9.3 µM was found for Ac-RYFCTKWAHGWCEEV-NH2 (disulfide 4-12 (inferred)) [SYN1548] in this work.

Target: T1, soluble human FcRn (shFcRn)
Experiment: as above
Remark: another data set of the same source
In the case of Ac-MTCKWDDGFSCEYV-NH2 (disulfide 3-11 (inferred)) [SYN1161], the Kd is reported as 1.21 µM and 1.17 µM.
A Kd of 1.25 µM was found for Ac-AMTCKWDDGFSCEYV-NH2 (disulfide 4-12 (inferred)) [SYN1144] in this work.
A Kd of 1.76 µM was found for Ac-YMTCKWDDGFSCEAV-NH2 (disulfide 4-12 (inferred)) [SYN1155] in this work.
A Kd of 0.58 µM was found for Ac-YMTCKWDDGFSCEYA-NH2 (disulfide 4-12 (inferred)) [SYN1156] in this work.
For Ac-YMTCKWDDAFSCEYV-NH2 (disulfide 4-12 (inferred)) [SYN1151], the Kd was 1.5 µM and 0.83 µM.
A Kd of 1.54 µM was found for Ac-YMTCKWADGFSCEYV-NH2 (disulfide 4-12 (inferred)) [SYN1149] in this work.
A Kd of 0.154 µM was found for Ac-VMKCWWDEEMLCRAF-NH2 (disulfide 4-12 (inferred)) [SYN1532] in this work.
A Kd of 0.558 µM was found for Ac-VMHCWWDEEMLCRAF-NH2 (disulfide 4-12 (inferred)) [SYN1533] in this work.
A Kd of 0.702 µM was found for Ac-VMKCWWDEEMLCRAV-NH2 (disulfide 4-12 (inferred); not fully specified) [SYN1540B] in this work.
A Kd of 0.267 µM was found for Ac-VMKCWWDEEMLCEAF-NH2 (disulfide 4-12 (inferred)) [SYN1538] in this work.
A Kd of 2.6 µM was found for Ac-VMKCFWDEEMLCRAF-NH2 (disulfide 4-12 (inferred)) [SYN1535] in this work.
A Kd of 0.572 µM was found for Ac-VMKCWWDEEMLCRAV-NH2 (disulfide 4-12 (inferred); not fully specified) [SYN1540A] in this work.
A Kd of 0.104 µM was found for Ac-VMKCWWDEEMLCRYF-NH2 (disulfide 4-12 (inferred)) [SYN1539] in this work.
A Kd of 0.162 µM was found for Ac-VMRCWWDEEMLCRAF-NH2 (disulfide 4-12 (inferred)) [SYN1534] in this work.
For Ac-AGVMKCWWDEEMLCRAFGTGGGK-NH2 (disulfide 6-14 (inferred)) [SYN531], the Kd was 0.45 µM and 0.3 µM.
A Kd of 0.74 µM was found for Ac-VMHCFWDEEFKCDQG-NH2 (disulfide 4-12 (inferred)) [SYN1197] in this work.
A Kd of 0.37 µM was found for Ac-VMHCFWDEEFKCEQG-NH2 (disulfide 4-12 (inferred)) [SYN1258] in this work.
A Kd of 3.6 µM was found for Ac-VMHCFWDEAFKCDQG-NH2 (disulfide 4-12 (inferred)) [SYN1216] in this work.
A Kd of 1.45 µM was found for Ac-VMHCFWDEGFKCDQG-NH2 (disulfide 4-12 (inferred)) [SYN1257] in this work.
A Kd of 0.091 µM was found for Ac-VMHCFWDEEFKCDYG-NH2 (disulfide 4-12 (inferred)) [SYN1259] in this work.
A Kd of 0.3 µM was found for Ac-VMHCFWDEEFKCDQV-NH2 (disulfide 4-12 (inferred)) [SYN1260] in this work.
A Kd of 0.72 µM was found for Ac-YMHCFWDEEFKCDQG-NH2 (disulfide 4-12 (inferred)) [SYN1256] in this work.
A Kd of 4.4 µM was found for Ac-VMHCFWDEAFRCDQG-NH2 (disulfide 4-12 (inferred)) [SYN1382] in this work.
A Kd of 0.06 µM was found for Ac-VMHCFWDEEFRCDYG-NH2 (disulfide 4-12 (inferred)) [SYN1381] in this work.
A Kd of 2.84 µM was found for Ac-VMACFWDEEFKCDQG-NH2 (disulfide 4-12 (inferred)) [SYN1215] in this work.

The binders below were run against T1, soluble human FcRn (shFcRn) (assay: SPR (Biacore), immobilized shFcRn, pH 6).
Ac-YMTCKADDGFSCEYV-NH2 (disulfide 4-12 (inferred)) [SYN1148]: no binding.
